Target: T1, Human fumarase (human), P07954
T1 chain: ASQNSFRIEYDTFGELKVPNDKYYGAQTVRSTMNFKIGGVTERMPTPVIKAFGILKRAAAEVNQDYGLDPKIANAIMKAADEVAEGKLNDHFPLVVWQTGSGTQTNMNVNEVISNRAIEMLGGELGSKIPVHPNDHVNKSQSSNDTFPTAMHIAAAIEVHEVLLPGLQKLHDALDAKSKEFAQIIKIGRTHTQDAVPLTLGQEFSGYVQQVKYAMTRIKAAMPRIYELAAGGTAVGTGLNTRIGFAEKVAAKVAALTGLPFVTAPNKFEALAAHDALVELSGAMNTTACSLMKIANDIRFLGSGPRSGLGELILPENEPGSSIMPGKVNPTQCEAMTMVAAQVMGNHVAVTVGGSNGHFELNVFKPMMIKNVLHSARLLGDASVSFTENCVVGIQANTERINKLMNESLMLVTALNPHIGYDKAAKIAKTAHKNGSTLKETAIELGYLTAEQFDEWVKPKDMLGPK
Test: crystal structure
Settings: remark: other sources report otherwise

B1: Human fumarase, P07954 45-510 (enzyme)
chain: T1 chain
**Q.** For B1, which stoichiometry N is on record?
**A.** 4

— doi:10.1101/2021.08.28.458030
